The values that follow come from patent publication US20240150465A1 (Chugai, published 2024).

In test [1] the target is T1, del0.
T1 construct: also called human DLL3 ECD with Flag-tag on C-terminus
T1 chain: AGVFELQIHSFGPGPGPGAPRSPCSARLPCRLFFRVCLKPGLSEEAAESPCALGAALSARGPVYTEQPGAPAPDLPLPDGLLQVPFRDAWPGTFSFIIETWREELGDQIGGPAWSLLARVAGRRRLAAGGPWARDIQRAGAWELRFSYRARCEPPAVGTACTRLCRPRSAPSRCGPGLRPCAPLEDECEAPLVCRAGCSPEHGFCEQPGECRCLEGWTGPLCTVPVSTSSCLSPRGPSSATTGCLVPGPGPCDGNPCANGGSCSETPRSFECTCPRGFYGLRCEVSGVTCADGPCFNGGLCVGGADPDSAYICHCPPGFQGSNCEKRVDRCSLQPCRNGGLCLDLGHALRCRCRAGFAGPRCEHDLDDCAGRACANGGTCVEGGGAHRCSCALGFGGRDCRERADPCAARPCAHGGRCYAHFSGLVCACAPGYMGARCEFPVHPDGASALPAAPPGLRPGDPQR
Put plainly: ELISA with the human DLL3 ECD fragment proteins del0 to del6, OD405. Here is the method:
(§1) Nunc MaxiSorp 384-well plates (Sigma-Aldrich) were coated with each of the human DLL3 ECD fragment proteins del0 to del6, and blocked with 20% Blocking One (NACALAI TESQUE). Blocking buffer was removed and recombinant anti-DLL3 antibodies were incubated with the immobilized proteins for 1 hour at room temperature and washed with HEPES buffer (0.05% Tween20, HEPES). Monoclonal ANTI-FLAG M2-Peroxidase, Clone M2 (Sigma-Aldrich) was then added and incubated for 1 hour at room temperature and washed. Then, ABTS Microwell Peroxidase Substrate (Kirkegaard & Perry Laboratories) was added and OD405 was analyzed with […]ax 384 (Molecular Devices).
Background: An ELISA detects its analyte on a solid surface through an enzyme-linked reagent.

Test [2] deals with T2, del5.
T2 construct: also called truncated human DLL3 ECD variant with Flag-tag on C-terminus
T2 chain: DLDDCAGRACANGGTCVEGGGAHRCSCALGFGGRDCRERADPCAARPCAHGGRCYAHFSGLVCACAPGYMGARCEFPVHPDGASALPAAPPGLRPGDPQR
The test is described as above. As to the method:
as §1

Test [3] deals with T3, del6.
T3 construct: also called truncated human DLL3 ECD variant with Flag-tag on C-terminus
T3 chain: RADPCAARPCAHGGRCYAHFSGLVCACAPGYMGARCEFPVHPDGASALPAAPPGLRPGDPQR
The test is described as above. Here is the method:
as §1

For test [4], the target named is T4, human DLL3 (delta-like protein 3 isoform 1 precursor) expressed on Ba/F3 cells (human, UniProt Q9NYJ7 27-618).
T4 construct: Full-length cDNA stably transfected into mouse Ba/F3 cells; also called human DLL3 expressing Ba/F3
T4 sequence: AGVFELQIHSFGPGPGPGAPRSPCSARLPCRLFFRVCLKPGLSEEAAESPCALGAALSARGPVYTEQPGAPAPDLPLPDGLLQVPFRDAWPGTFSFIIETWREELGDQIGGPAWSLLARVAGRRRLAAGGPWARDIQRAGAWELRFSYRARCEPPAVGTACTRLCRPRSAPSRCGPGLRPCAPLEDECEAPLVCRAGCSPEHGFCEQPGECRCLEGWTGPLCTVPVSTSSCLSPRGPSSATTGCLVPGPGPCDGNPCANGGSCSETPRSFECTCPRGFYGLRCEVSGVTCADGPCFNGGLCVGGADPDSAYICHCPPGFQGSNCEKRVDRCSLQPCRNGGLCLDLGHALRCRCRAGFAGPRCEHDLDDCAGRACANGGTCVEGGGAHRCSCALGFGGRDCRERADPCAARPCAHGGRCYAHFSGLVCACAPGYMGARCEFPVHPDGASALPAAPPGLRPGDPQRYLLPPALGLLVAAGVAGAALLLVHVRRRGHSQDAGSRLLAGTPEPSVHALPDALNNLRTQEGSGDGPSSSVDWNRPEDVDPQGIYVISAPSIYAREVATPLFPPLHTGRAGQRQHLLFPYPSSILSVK
Description: cell ELISA, B-cell culture supernatants on immobilized hDLL3/BaF_H3 cells. Here is the method:
ELISA screening was conducted to test specificity of antibodies in B-cell culture supernatants. Human DLL3 expressing Ba/F3 (hDLL3/BaF_H3 established in Example 2, 2.5×10⁴ cells) were immobilized onto a Nunc MaxiSorp 384-well plate (Sigma-Aldrich) which was pre-coated with BSA (Sigma-Aldrich) and SUNBRIGHT (registered trademark) OE-080CS as Biocompatible Anchor for cell Membrane (YUKA SANGYO). Immobilized cells were incubated with 20 microliters (micro L) of B-cell culture supernatants for 1 hour. The supernatants were aspirated and the cells were washed with HEPES buffer (0.02 M HEPES, 5 mM KCl, 4 mM NaHCO₃, 138 mM NaCl, 2 mM CaCl₂, 5 mM Glucose, 0.4 mM KH₂PO₄, 0.34 mM Na₂HPO₄° and 0.1% BSA). After washing, goat anti-rabbit IgG polyclonal antibody HRP conjugate (BETHYL, A120-111P) was added. The cells were further incubated on ice for 1 hour and washed. Then, ABTS Microwell Peroxidase Substrate (Kirkegaard & Perry Laboratories) was added and OD405 was analyzed with […]ax 384 (Molecular Devices).

The target in test [5] is T5, human DLL3 on the surface of cancer cell lines SK-MEL 30, NCI-H1436 and NCI-H2227 (human, UniProt Q9NYJ7 27-618).
T5 construct: whole, on cells; Endogenous protein of human cancer cell lines
T5 sequence (looked up): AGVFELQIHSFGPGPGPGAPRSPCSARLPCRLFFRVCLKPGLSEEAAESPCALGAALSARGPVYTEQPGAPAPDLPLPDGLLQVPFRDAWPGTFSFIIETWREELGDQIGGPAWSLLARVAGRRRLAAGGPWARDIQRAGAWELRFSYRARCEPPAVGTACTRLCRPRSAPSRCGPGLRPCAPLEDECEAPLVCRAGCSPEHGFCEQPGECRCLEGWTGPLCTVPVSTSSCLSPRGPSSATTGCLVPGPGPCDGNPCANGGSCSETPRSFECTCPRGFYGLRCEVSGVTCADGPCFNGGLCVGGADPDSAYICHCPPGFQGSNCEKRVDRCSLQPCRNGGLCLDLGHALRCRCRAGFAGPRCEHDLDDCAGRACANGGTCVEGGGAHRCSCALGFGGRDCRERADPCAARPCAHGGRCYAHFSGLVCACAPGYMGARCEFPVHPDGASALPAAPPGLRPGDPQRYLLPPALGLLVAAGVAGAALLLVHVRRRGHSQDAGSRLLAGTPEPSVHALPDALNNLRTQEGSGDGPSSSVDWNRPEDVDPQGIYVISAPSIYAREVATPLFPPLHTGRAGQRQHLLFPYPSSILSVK
Put plainly: flow cytometry on SK-MEL-30 cells, 20 micro g/mL antibody, FITC-labeled goat anti-rabbit IgG [A]. Here is the method:
The cancer cells (5×10⁵ cells) were washed with 0.5% BSA-supplemented CellWASH (BD Bioscience) (hereinafter referred to as FACS/PBS). Bivalent anti-DLL3 antibody (DLA0316-rbIgG) or the control antibody (rabbit IgG) was added at a final concentration of 20 micro g/mL in a 50 micro L solution. After being left to stand at 4 degrees C. for 30 to 60 minutes, the cells were washed with FACS/PBS, and an FITC-labeled goat anti-rabbit IgG antibody diluted 50-fold with FACS/PBS was added to the cells. After being left to stand at 4 degrees C. for further 30 minutes, the cells were washed with FACS/PBS, and analyzed by FACS Verse (Becton Dickinson).

B1: DLA0126 (antibody, human IgG1, V domains shown)
VH: QSVEESGGRLVTPGTPLTLTCTVSGFSLSRYAMSWVRQAPGKGLEWIGIITGGGDPYYASWAKGRFTISKTSTTMDLKITSPTTEDTATYFCARMIGSEYASSSEYYDAFDPWGPGTLVTVSS
VL: ALVMTQTPSSVSAAVGGTVTINCQASQNIYSNLAWYQQKPGQRPKLLIYGASNLESGVPSRFKGSGSGTEYTLTISDLECDDAAIYYCQSAYYTTSVDVLYPFGGGTEVVVK
notes: Rabbit B-cell clone, screened as B-cell culture supernatant
As to B1, the binding result in test [1] is listed as “binds”; in test [2], “no binding”; in test [3] it was “no binding”; in test [4], “binds”.

B2: DLA0841 (antibody, human IgG1, V domains shown)
VH: QEQLVESGGGLVQPEGSLTLTCTASGFSFSSSYDMCWVRQAPGKGPEWIACIYTGDGSTDYASWAKGRFTVSKASSTTVTLQMTSLAVADTATYFCARNSGYGYFGLWGPGTLVTVSS
VL: QVLTQTPSPVSAAVGGTVTISCQSTESVYGSDWLSWYQQKPGQPPKVLIYQASNLEIGVPSRFKGSGSGTQFTLTISGAQCDDAATYYCQGYYSGYIYAFGGGTEVVVK
notes: as for B1
On to B2, for which the binding result in test [1] and in test [4] was “binds” in each case.

B3: DLA0580 (antibody, human IgG1, V domains shown)
VH: QEQLVESGGGLVQPGASLTLTCKASGFDFTSNAMCWVRQAPGKGPEWIACIYNDDGSAYSASWAKGRFTVSKTSSTAVTLQVTGLTAADTATYFCARSPYYTYGGAPSAYASGYFNLWGPGTLVTVSS
VL: DIVMTQTPASVEAAVGGTVTIKCQASENIYNSLAWYQQKPGQPPKLLMHDASVLTSGVPSRFSGSGYGTEFTLTISDLECADAATYYCQSDYYSTGGSYGFAFGGGTEVVVK
notes: as for B1
Turning to B3, the binding result in test [1] is on record as “binds”; in test [2], “no binding”; in test [3] it was “no binding”; in test [4], “binds”.

B4: DLA0641 (antibody, human IgG1, V domains shown)
VH: QEQLVESGGGLVQPGASLTLTCKASGFSFNTSYCPCWVRQVPGKGPEWIACIDAGYSGATWYANWAKGRFTISKTSSTTVTLQMTSLTGADTATYFCVRCDAAGSGAFNLWGPGTLVTVSS
VL: AYDMTQTPASVEVPVGGTVTIKCQASQSIYSYLSWYQQKPGQPPKLLIYEASKLTSGVPSRFSGSGSGTEFTLTISGVQCDDAATYYCQQGSGYMDVDNVFGGGTEVVVK
notes: as for B1
As for B4, the binding result in test [1] and in test [4] was “binds” each time.

B5: DLA0316 (antibody, human IgG1, V domains shown)
VH: QEQLVESGGGLVQPGGSLKLSCKVSGFDFSNYGVSWVRQAPGKGLEWIGYIDPAFGRTYYASWVNGRFTISSHNAQNTLYLQLNSLTAADTATYFCVRVALVVAGVAYYGMDVWGPGTLVTVSS
VL: DVVMTQTPASVEAAVGGTVTINCQASQNIYSYLSWYQQKPGQPPKLLIYRTSTLASGVPSRFKGSGSGTQFTLTISDLECADAATYYCQSYYYSSGSSYGAFAFGGGTEVVVK
notes: as for B1
In the case of B5, the binding result in test [1] and in test [4] was “binds” in each case.

B6: DLA0316-rbIgG (antibody, V domains shown)
VH: QEQLVESGGGLVQPGGSLKLSCKVSGFDFSNYGVSWVRQAPGKGLEWIGYIDPAFGRTYYASWVNGRFTISSHNAQNTLYLQLNSLTAADTATYFCVRVALVVAGVAYYGMDVWGPGTLVTVSS
VL: DVVMTQTPASVEAAVGGTVTINCQASQNIYSYLSWYQQKPGQPPKLLIYRTSTLASGVPSRFKGSGSGTQFTLTISDLECADAATYYCQSYYYSSGSSYGAFAFGGGTEVVVK
notes: also called bivalent DLA0316; Bivalent anti-DLL3 antibody
On to B6, for which the binding result in test [5] is given as “binds”.

B7: DLA0106 (antibody, human IgG1, V domains shown)
VH: QSVEESGGRLVTPGTPLTLTCTVSGIDLSSYAMSWVRQAPGKGLEWIGIISNSGSGFYANWAKGRFTISKTSSTTVDVKISSPTTEDTATYFCARVFDADSSGYYYYGMDPWGPGTLVTVSS
VL: DVVMTQTPSSVSEPVGGTVTIKCQASEDIESYLAWYQQKPGQPPKLLIYAASTLASGVSSRFRGSGSGTEYTLTISDLECADAATYYCQSTYYDSSGVDWAFGGGTEVVVK
notes: as for B1
For the molecule B7, the binding result in test [1] is “binds”; in test [2], “no binding”; in test [3], “no binding”; in test [4], “binds”.

B8: DLA0769 (antibody, human IgG1, V domains shown)
VH: QEQLVESGGGLVQPEGSLTLTCTASGFSFSSSGYMCWVRQAPGKGLEWIACISGGSSGDTDYANWAKGRFSISKTSSTTVTLQMTSLTVADTATYFCARDVYIDSTIFNFNLWGPGTLVTVSS
VL: QVLTQTPSPVSAAVGGTVTISCQASQSVYNNNNLAWYQQKPGQPPKLLIYAASSLASGVPSRFKGSGAGTQFTLTISDLECDDAATYYCQGTYYSSGWYSTFGGGTEVVVK
notes: as for B1
In the case of B8, the binding result in test [1] and in test [4] was “binds” each time.
